Measured values: patent US20200200751A1 (ECS PROGASTRIN, published 2020)

Target: T1, human progastrin (full length, recombinant, produced in E. coli, tag removed) (human)
T1 construct: also called hPG; PG
T1 chain: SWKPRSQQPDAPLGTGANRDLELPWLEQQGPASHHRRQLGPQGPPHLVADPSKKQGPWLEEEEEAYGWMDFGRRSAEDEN
Assay: epitope mapping (details not given)

B1: mAb13 (hybridoma 2C6C3C7) (antibody, V domains shown)
VH: EVQLVESGGGLVQPGGSLKLSCAASGFIFSSYGMSWVRQSPDRRLELVASINTFGDRTYYPDSVKGRFTISRDNAKNTLYLQMTSLKSEDTAIYYCARGTGTYWGQGTTLTVSS
VL: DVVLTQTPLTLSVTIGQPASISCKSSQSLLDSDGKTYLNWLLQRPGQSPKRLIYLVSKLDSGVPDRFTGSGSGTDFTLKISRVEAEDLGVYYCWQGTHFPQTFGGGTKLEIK
notes: Murine variable domains (mVH 13 / mVL 13)
B1: binds.

B2: mAb16 (hybridoma 1E9D9B6) (antibody, V domains shown)
VH: QVQLQQSGAELVKPGASVKLSCKASGYTFTSYYMYWVKQRPGQGLEWIGEINPSNGGTNFNEKFKSKATLTVDKSSSTAYMQLSSLTSEDSAVYYCTRGGYYPFDYWGQGTTLTVSS
VL: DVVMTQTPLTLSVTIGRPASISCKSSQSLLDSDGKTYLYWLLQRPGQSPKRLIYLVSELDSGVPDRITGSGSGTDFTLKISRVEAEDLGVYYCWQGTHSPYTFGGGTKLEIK
notes: Murine variable domains (mVH 16 / mVL 16)
B2: binds.

B3: mAb3 (hybridoma 6B51311C10) (antibody, V domains shown)
VH: EVQLQQSGTVLARPGASVKMSCKASGYIFTSYWVHWVKQRPGQGLEWIGGFYPGNSDSRYNQKFKGKATLTAVTSASTAYMDLSSLTNEDSAVYFCTRRDSPQYWGQGTTLTVSS
VL: DVLMTQTPLSLPVSLGDQASISCRSSQSIVHSNGNTYLEWYLQKPGQSPKLLIYKVSNRFSGVPDRFSGSGSGTDFTLKISRLEAEDLGVYYCFQGSHVPFTFGGGTKLEIK
notes: Murine variable domains (mVH 3 / mVL 3) of the hybridoma antibody
B3: binds.

B4: mAb4 (hybridoma 20D2C3G2) (antibody, V domains shown)
VH: QVQLQQSGAELMKPGASVKISCKATGYTFSSSWIEWLKQRPGHGLEWIGEFLPGSGSTDYNEKFKGKATFTADTSSDTAYMLLSSLTSEDSAVYYCATDGNYDWFAYWGQGTLVTVSA
VL: DLVMTQTPLSLPVSLGDQASISCRSSQSLVHSSGVTYLHWYLQKPGQSPKLLIYKVSNRFSGVPDRFSGSGSGTDFTLKISRVEAEDLGVYFCSQSTHVPPTFGSGTKLEIK
notes: Murine variable domains (mVH 4 / mVL 4)
B4: binds.
